In the DeepSol protein solubility set:

Assay: soluble on expression in E. coli; label from the status in PepcDB or PDB records
With “MEDNNELIKGRGAQMQAKSRFHAQEIVQEHMEGIDEITDINTPTQYLYENAKQIVNKVDSPDIGLAYSMNPYQGCEHGCIYCYARNSHEYWGYNAGIDFEKKIIVKRNAASVLAKTFEKPNWEVLPIMFSGNTDCYQPIERKLQITRNMLQVIATYKHPVGMITKNHLITRDIDILKELAAQQLVHVSISITSARDEIRQKLEPRASAISQRLKTVEALAKENIPVNVMIAPIIPGINHHEIPQIMKQIADAGASSAAYTIVRLNGSIGVVFEDWIRKAYPDRADKVLNQIKECHGGTLNDSRFSTRMRGQGNIAASIHDLFYVSRKKYLSGREYPPLRTDLFVRSNKGQLGLF” the “soluble on expression in E. coli” value was “not soluble”.
In the case of “MSERQSKYFDYQGIVISSTGQDNQDSETDLVYLIQAHGKAAPKNIMYGVSKCAFVPTNLERNFDNIEEAKNLERRSKIPLKFGEVILWNESDCDHDKRIILHIKREKPIYEASSSRNGLILKVGGVIQPTSTTSFWTPLCTVTMPETEATRAEPDVWLYAWIRFETTMKSGLDPFNMTATFESFDSCDPSDQARVCEAPWNAGSPDSKFGVWRPDPKPADSDDEIDIEPREGWHLPEDKWAEVIKMQLGLYVGERLLICKELSQFDFIIPLQKPFSRGTDKTLIYPAVGEYFHFSAIWSMQHNGFLIYELQPVPLLRQHVTSVNGNLLTRVVPASIRGLFVDKEGTLGLIDDPHHLLSFFEFHPAGYEFLKAMAEVRAVRTSENKSVRYRIVRTSGMSIFENWLRDTQFVVGPVKGIRINEDTVICAKHPNVYFKIPNNLKEGIPIGGGVQFVGKRQAGVDSEIMITECSPCPAFTCKNYSVSGDTRLFQVYLKPNCDHEQLAESDSMGFVDFRELETPCRGKFLAWVRESITVNDCRRAATIMEVCSTAICPPLIAMSANSSRATSARTTPAGSSIGSRSSIQSRASAATSVSSNRFVGPSSRRTPSGTPQSSTSSRV”, the “soluble on expression in E. coli” value is reported as “not soluble”.
In the case of “MGSDKIHHHHHHMERVHVDIRQLQFFAEIVRYGSFTKAAERLHVAQPAVSMAMKKLEEELDLILFNRQERRISLTAEGEIFLRHAEKILDEVKSAETEMEELRGLAKGEVRVGIPPMMSAYFFPEIIRDFSNSYPDLHLTVSGEGASKIQKMIIDGELDMGVVAGASFPETLEVRRFLREEVIVCVPRSHPLASRGSLTLHEFARHPLIFYREGYYLRELILDVLRGAGLSPTIRFETNLYTLVKSLVQKGMGISVFLRMVVAEDDDLTAISLDPPLFLDLLIAWKKHGYLSRANRAFADYLLEKGSSAAL”, the “soluble on expression in E. coli” value is reported as “not soluble”.
For “MGLCVSVNRNEYVSSSTTAKIVTINGDLREYDVPVLASQVLESESTSSSSSSSSSSYFLCNSDSLYYDDFIPAIESDEILQANQIYFVLPISKRQYRLSASDMAALAVKASVAIEKAAGKKNRRRRSGRISPVVTLNQANDNRIAAVNNRIGGEATNMMMQKGKLPNRTTPFKDTNGYSRSGSVRKLKRYTSGRAKLAVRSFRLRLSTIYEGSSFN”, the “soluble on expression in E. coli” value was “not soluble”.
For “MSKRILFIVGSFSEGSFNRQLAKKAETIIGDRAQVSYLSYDRVPFFNQDLETSVHPEVAHAREEVQEADAIWIFSPVYNYAIPGPVKNLLDWLSRSLDLSDPTGPSVLQDKIVTVSSVANGASPEEVFEDYRSLLPFIRMHLVDQLTGVPINSEAWSTGILKVSAEKLAELSAQADALLSAIENLEHHHHHH”, the “soluble on expression in E. coli” value was “soluble”.
In the case of “MSLILCCGEALIDMLPRQTTLGEAGFAPYAGGAVFNTAIALGRLGVPSAFFTGLSDDMMGDILRETLRASKVDFSYCATLSRPTTIAFVKLVDGHATYAFYDENTAGRMITEAELPALGADCEALHFGAISLIPEPCGSTYEALMTREHETRVISLDPNIRPGFIQNKQSHMARIRRMAAMSDIVKFSDEDLAWFGLEGDEDTLARHWLHHGAKLVVVTRGAKGAVGYSANLKVEVASERVEVVDTVGAGDTFDAGILASLKMQGLLTKAQVASLSEEQIRKALALGAKAAAVTVSRAGANPPFAHEIGLEGHHHHHH”, the “soluble on expression in E. coli” value is reported as “soluble”.
For “MGTEFNGLFDEWAHTYDSFVQGEDIQYKEVFAHYEDILEDVVNKSFGNVLEFGVGTGNLTNKLLLAGRTVYGIEPSREMRMIAKEKLPKEFSITEGDFLSFEVPTSIDTIVSTYAFHHLTDDEKNVAIAKYSQLLNKGGKIVFADTIFADQDAYDKTVEAAKQRGFHQLANDLQTEYYTRIPVMQTIFENNGFHVTFTRLNHFVWVMEATKQLEHHHHHH”, the “soluble on expression in E. coli” value was “soluble”.
In the case of “MAHHHHHHMTVYPSLFVCHGGGPLPLLRDEGHKMLVDALKSHRKLLENRFGLPKAIVVISAHYETNTPKVGGAERPSLLFDYYGFPEESYKFRYPVPGNAPLAAAIVNALTVGGFHAEMEPERLLDHGVFVPLMIMFPEANIPVVPLSVLRSGDPAEHIRMGKALRPLRSDAVMFIGSGSTMHHFAHFNREGAGRKFGDALTSILCKNEVATLPEDRLKAMERVKTMEGFTEAQPLREHEHLMPLLTLVGAANGNIAEEVASISFGRANVRNYLFTE”, the “soluble on expression in E. coli” value is reported as “not soluble”.
With “AHHHHHHGSVDYELLKKVVEAPGVSGYEFMGIRDVVIEEIKDYVDEVNVDKLGNVIAHKKGEGPKVMIAAHMDQIGLMVTHIEKNGFLRVAPIGGIDPRTLIAQRFKVWIDKGKFIYGVGGSVPPHIQKPEDRKKAPDWDQIFIDIGAESKEEAEELGVKIGTIVTWDGRLERLGKHRFVSIAFDDRIAVYTLIETARQLQDTKADIYFVATVQEEVGLRGARTSAFGINPDYGFAIDVTIAADVPGTPEHKQVTQLGKGTAIKIMDRSVICHPTIVRWMEELAKKYEIPYQWDILLGGGTDAGAIHLTRAGVPTGAVSIPARYIHSNAEVVDERDVDASVKLMVKVLEHIHELKI” the “soluble on expression in E. coli” value was “soluble”.
With “MLDNVLRIATRQSPLALWQAHYVKDKLMASHPGLVVELVPMVTRGDVILDTPLAKVGGKGLFVKELEVALLENRADIAVHSMKDVPVEFPQGLGLVTICEREDPRDAFVSNNYDSLDALPAGSIVGTSSLRRQCQLAERRPDLIIRSLRGNVGTRLSKLDNGEYDAIILAVAGLKRLGLESRIRAALPPEISLPAVGQGAVGIECRLDDSRTRELLAALNHHETALRVTAERAMNTRLEGGCQVPIGSYAELIDGEIWLRALVGAPDGSQIIRGERRGAPQDAEQMGISLAEELLNNGAREILAEVYNGDAPA” the “soluble on expression in E. coli” value was “soluble”.
In the case of “LFGVTSELSKDGRERIYRVEGQLFYASVEDFMAAFDFREALDRVVIDVSRAHIWDISSVQALDMAVLKFRREGAEVRIVGMNEASETMVDRLAIHDKPGAMDRLVAH”, the “soluble on expression in E. coli” value is reported as “not soluble”.
With “MAVASTSTSDGMLTLDLIQEEDPSPEEPTSCAESFRVDLDKSVAQLAGSRRRADSDRIQPSADRASSLSRPWEKTDKGATYTPQAPKKLTPTEKGRCASLEEILSQRDAASARTLQLRAEEPPTPALPNPGQLSRIQDLVARKLEETQELLAEVQGLGDGKRKAKDPPRSPPDSESEQLLLETERLLGEASSNWSQAKRVLQEVRELRDLYRQMDLQTPDSHLRQTTPHSQYRKSLM” the “soluble on expression in E. coli” value was “soluble”.
For “MVVKEKVVNEMQEVKEMIDTLVNNGRKALQALESFTQEQIDNIVHEMALAGVDQHMPLAKLAVEETGRGVYEDKCIKNIFATEYIWHSIKKDKTVGIIHEDPHEEIIEIAEPVGVVAGVTPVTNPTSTTMFKALIAIKTRNPIIFAFHPSAQNCSVAAAKTVYDAAVKAGAPKHCIQWIEKPSVEATKQLMNHEGVALVLATGGAGMVKSAYSTGKPALGVGPGNVPCYIEKSAHIKRAVNDLILSKTFDNGMICASEQAIIVDKEIYDDVKTEMITNDCYFVTEEERRKLEKLVINENTCAVNSDIVGKSAQYIAELVGITVPKNTKMLVAEIQGIGAAYPLSREKLSPVLACVKANSLEEGFTYCEEMLNLGGLGHSAVIHSVNKEVQKQFGLRMKACRLIVNAPSSQGGIGDIYNGFIPSLTLGCGSYGKNSVSQNVTATHLLNIKRLANRKKNMQWFKLPPKIYFEKHATAYLANMPNISRAFIVTDPGMVEHGYVDTVAHYLRKHANDVKVEVFFEVEPDPSDETVFKGAEMMRSFQPDVIIALGGGSAMDAAKGMWLFYEYPETTFYGIKQKFLDIRKRTCKYPELGSKAQFVAIPTTSGTGSEVTPFAVITDKKNNIKYPLADYELTPDVAIVDPQFVMTVPPHVTADTGMDVLTHAIEAYVSVLANDYTDGLALKAIDLVFKYLPRAFKDGHDEEAREKMHNASAIAGMAFANAFLGINHSLAHKIGPEFHIPHGRANAILMPHVIRYNAIKPRKHALFPKYEHFVADERYAHIARMLGLPASSVAEGVESLDKAIIDLGKSLNINMSIAGQGVAKDQFEEVVGLLAERAFEDQCTTANPKLPLISELKEIYMKAYKGE”, the “soluble on expression in E. coli” value was “not soluble”.
